Experimental data as given in patent US20190241648A1 (STATEN BIOTECHNOLOGY B V, published 2019).
Ends that are not written are not given here.

Columns and labels:
Assay in all cases: cyclic peptide substitution array
ApoC3 peptide F64P = molecular target: T1, ApoC3 peptide F64P (human, thioether (positions not given here); not fully specified (bridges); also: cyclic (thioether), positions not given here)
T1 peptide: DKFSEPWDLDPEV
Outline: (§1)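 Peptide microarrays incubated with antibody samples, then stained with goat anti-human IgG (Fc) DyLight680 and anti-HA DyLight800 control antibodies, scanned at intensity 7/7 (red/green). Secondary-only pre-stain checked background binding; framing HA peptides served as quality control; substitution effects read as changes in spot intensity.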

ApoC3 peptide D59E = molecular target: T2, ApoC3 peptide D59E (human, thioether (positions not given here); not fully specified (C-terminus, bridges))
T2 peptide: EKFSEFWDLDPEV
Outline: as §1

[1] = molecular target: T3, wild-type ApoC3 peptide DKFSEFWDLDPEV (human, cyclic (thioether))
T3 construct: 13 aa cyclic constrained peptide
T3 peptide: DKFSEFWDLDPEV
Outline: as §1

ApoC3 peptide E63G = molecular target: T4, ApoC3 peptide E63G (human, not fully specified; cyclic (thioether))
T4 peptide: DKFSGFWDLDPEV
Outline: as §1

ApoC3 peptide K60M = molecular target: T5, ApoC3 peptide K60M (human, cyclic (thioether))
T5 peptide: DMFSEFWDLDPEV
Outline: as §1

ApoC3 peptide K60C = molecular target: T6, ApoC3 peptide K60C (human, thioether (positions not given here); not fully specified (bridges); also: cyclic (thioether), positions not given here)
T6 peptide: DCFSEFWDLDPEV
Outline: as §1

ApoC3 peptide F61T = molecular target: T7, ApoC3 peptide F61T (human, cyclic (thioether))
T7 peptide: DKTSEFWDLDPEV
Outline: as §1

ApoC3 peptide E70C = molecular target: T8, ApoC3 peptide E70C (human, cyclic (thioether))
T8 peptide: DKFSEFWDLDPCV
Outline: as §1

ApoC3 peptide E70Y = molecular target: T9, ApoC3 peptide E70Y (human, cyclic (thioether))
T9 peptide: DKFSEFWDLDPYV
Outline: as §1

ApoC3 peptide K60I = molecular target: T10, ApoC3 peptide K60I (human, cyclic (thioether))
T10 peptide: DIFSEFWDLDPEV
Outline: as §1

ApoC3 peptide L67C = molecular target: T11, ApoC3 peptide L67C (human, cyclic (thioether))
T11 peptide: DKFSEFWDCDPEV
Outline: as §1

ApoC3 peptide F64N = molecular target: T12, ApoC3 peptide F64N (human, thioether (positions not given here); not fully specified (bridges); also: cyclic (thioether), positions not given here)
T12 peptide: DKFSENWDLDPEV
Outline: as §1

ApoC3 peptide L67S = molecular target: T13, ApoC3 peptide L67S (human, thioether (positions not given here); not fully specified (bridges); also: thioether between a C-terminal Cys side chain and a modified N-terminus, the Cys is not in the chain)
T13 peptide: DKFSEFWDSDPEV
Outline: as §1

ApoC3 peptide L67D = molecular target: T14, ApoC3 peptide L67D (human, thioether (positions not given here); not fully specified (bridges); also: thioether between a C-terminal Cys side chain and a modified N-terminus, the Cys is not in the chain)
T14 peptide: DKFSEFWDDDPEV
Outline: as §1

ApoC3 peptide P69I = molecular target: T15, ApoC3 peptide P69I (human, not fully specified; cyclic (thioether))
T15 peptide: DKFSEFWDLDIEV
Outline: as §1

ApoC3 peptide E70P = molecular target: T16, ApoC3 peptide E70P (human, cyclic (thioether))
T16 peptide: DKFSEFWDLDPPV
Outline: as §1

ApoC3 peptide D68P = molecular target: T17, ApoC3 peptide D68P (human, cyclic (thioether))
T17 peptide: DKFSEFWDLPPEV
Outline: as §1

ApoC3 peptide F64Y = molecular target: T18, ApoC3 peptide F64Y (human, thioether (positions not given here); not fully specified (bridges); also: cyclic (thioether), positions not given here)
T18 peptide: DKFSEYWDLDPEV
Outline: as §1

ApoC3 peptide F64Q = molecular target: T19, ApoC3 peptide F64Q (human, thioether (positions not given here); not fully specified (bridges); also: cyclic (thioether), positions not given here)
T19 peptide: DKFSEQWDLDPEV
Outline: as §1

ApoC3 peptide E63Q = molecular target: T20, ApoC3 peptide E63Q (human, cyclic (thioether))
T20 peptide: DKFSQFWDLDPEV
Outline: as §1

ApoC3 peptide K60P = molecular target: T21, ApoC3 peptide K60P (human, cyclic (thioether))
T21 peptide: DPFSEFWDLDPEV
Outline: as §1

ApoC3 peptide F64H = molecular target: T22, ApoC3 peptide F64H (human, thioether (positions not given here); not fully specified (bridges); also: cyclic (thioether), positions not given here)
T22 peptide: DKFSEHWDLDPEV
Outline: as §1

ApoC3 peptide E70K = molecular target: T23, ApoC3 peptide E70K (human, cyclic (thioether))
T23 peptide: DKFSEFWDLDPKV
Outline: as §1

ApoC3 peptide S62G = molecular target: T24, ApoC3 peptide S62G (human, not fully specified; cyclic (thioether))
T24 peptide: DKFGEFWDLDPEV
Outline: as §1

ApoC3 peptide F64T = molecular target: T25, ApoC3 peptide F64T (human, thioether (positions not given here); not fully specified (bridges); also: cyclic (thioether), positions not given here)
T25 peptide: DKFSETWDLDPEV
Outline: as §1

ApoC3 peptide D59Y = molecular target: T26, ApoC3 peptide D59Y (human, not fully specified; cyclic (thioether))
T26 peptide: YKFSEFWDLDPEV
Outline: as §1

ApoC3 peptide F61H = molecular target: T27, ApoC3 peptide F61H (human, cyclic (thioether))
T27 peptide: DKHSEFWDLDPEV
Outline: as §1

ApoC3 peptide V71S = molecular target: T28, ApoC3 peptide V71S (human, not fully specified; cyclic (thioether))
T28 peptide: DKFSEFWDLDPES
Outline: as §1

ApoC3 peptide K60E = molecular target: T29, ApoC3 peptide K60E (human, cyclic (thioether))
T29 peptide: DEFSEFWDLDPEV
Outline: as §1

ApoC3 peptide E63F = molecular target: T30, ApoC3 peptide E63F (human, not fully specified; cyclic (thioether))
T30 peptide: DKFSFFWDLDPEV
Outline: as §1

% of binding to wild-type peptide (ApoC3 peptide F64P): 528% | % of binding to wild-type peptide (ApoC3 peptide D59E): 128% | % of binding to wild-type peptide [1]: 100% | % of binding to wild-type peptide (ApoC3 peptide E63G): 0% | % of binding to wild-type peptide (ApoC3 peptide K60M): 186% | % of binding to wild-type peptide (ApoC3 peptide K60C): 67.2% | % of binding to wild-type peptide (ApoC3 peptide F61T): 40.3% | % of binding to wild-type peptide (ApoC3 peptide E70C): 27.1% | % of binding to wild-type peptide (ApoC3 peptide E70Y): 50.7% | % of binding to wild-type peptide (ApoC3 peptide K60I): 106% | % of binding to wild-type peptide (ApoC3 peptide L67C): 0% | % of binding to wild-type peptide (ApoC3 peptide F64N): 234% | % of binding to wild-type peptide (ApoC3 peptide L67S): 36.5% | % of binding to wild-type peptide (ApoC3 peptide L67D): 0.99% | % of binding to wild-type peptide (ApoC3 peptide P69I): 48% | % of binding to wild-type peptide (ApoC3 peptide E70P): 55.2% | % of binding to wild-type peptide (ApoC3 peptide D68P): 28.6% | % of binding to wild-type peptide (ApoC3 peptide F64Y): 118% | % of binding to wild-type peptide (ApoC3 peptide F64Q): 130% | % of binding to wild-type peptide (ApoC3 peptide E63Q): 32.4% | % of binding to wild-type peptide (ApoC3 peptide K60P): 205% | % of binding to wild-type peptide (ApoC3 peptide F64H): 84.5% | % of binding to wild-type peptide (ApoC3 peptide E70K): 60.1% | % of binding to wild-type peptide (ApoC3 peptide S62G): 0.88% | % of binding to wild-type peptide (ApoC3 peptide F64T): 467% | % of binding to wild-type peptide (ApoC3 peptide D59Y): 50.3% | % of binding to wild-type peptide (ApoC3 peptide F61H): 12.1% | % of binding to wild-type peptide (ApoC3 peptide V71S): 74.1% | % of binding to wild-type peptide (ApoC3 peptide K60E): 362% | % of binding to wild-type peptide (ApoC3 peptide E63F): 57.1%
B1: Llama antibody 5E5 (antibody, V domains shown)
VH: QLQLVESGGGLVQPGGSLRLSCAASGFTFGTYSMRWVRQVPRKALEWVSSISTDGGGTAYRDSVKGRFTISRDNAKNTLYLQMNNLKPEDTAIYYCVIAGYSDWGQGTQVTVSS
VL: ATMLTQSPGSLSVVPGESASISCKTSQGLVHSDGKTYFYWFLQKPGQSPQQLIYQVSNRASGVPDRFTGSGSGTDFTLKISGVKAEDAGVYYCAQGTYYPHTFGSGTRLEIK
notes: detected with goat anti-human IgG (Fc); also called mAb 5E5
